The record followed here is the supplement of paper PMC11246515.

The data set in a line: total protein half-life in vivo (active degradation + dilution); higher = more stable protein.
[1] abbreviates: E. coli NCM3722 delta-clpP delta-lon delta-hslV, growth: N-lim chemostat, doubling time 6 h.
The mark [2] stands for this setting: E. coli NCM3722 delta-clpP, growth: N-lim chemostat, doubling time 6 h.
Where [3] appears, read: E. coli NCM3722 delta-hslV, growth: N-lim chemostat, doubling time 6 h.
Setting [4] is: E. coli NCM3722 delta-lon, growth: N-lim chemostat, doubling time 6 h.
Setting [5] is: E. coli NCM3722 delta-smpB, growth: N-lim chemostat, doubling time 6 h.
[6] abbreviates: wild type E. coli NCM3722, growth: C-lim chemostat, doubling time 3 h.
Setting [7] is: wild type E. coli NCM3722, growth: C-lim chemostat, doubling time 6 h.
The mark [8] stands for this setting: wild type E. coli NCM3722, growth: C-lim chemostat, doubling time 12 h.
[9] abbreviates: wild type E. coli NCM3722, growth: N-lim chemostat, doubling time 6 h.
The mark [10] stands for this setting: wild type E. coli NCM3722, growth: N-lim chemostat, doubling time 12 h.
Setting [11] is: wild type E. coli NCM3722, growth: P-lim chemostat, doubling time 6 h.
The mark [12] stands for this setting: wild type E. coli NCM3722, growth: P-lim chemostat, doubling time 12 h.

± gives the standard deviation of the averaged measurements.

Take “MSEIVVSKFGGTSVADFDAMNRSADIVLSDANVRLVVLSASAGITNLLVALAEGLEPGERFEKLDAIRNIQFAILERLRYPNVIREEIERLLENITVLAEAAALATSPALTDELVSHGELMSTLLFVEILRERDVQAQWFDVRKVMRTNDRFGRAEPDIAALAELAALQLLPRLNEGLVITQGFIGSENKGRTTTLGRGGSDYTAALLAEALHASRVDIWTDVPGIYTTDPRVVSAAKRIDEIAFAEAAEMATFGAKVLHPATLLPAVRSDIPVFVGSSKDPRAGGTLVCNKTENPPLFRALALRRNQTLLTLHSLNMLHSRGFLAEVFGILARHNISVDLITTSEVSVALTLDTTGSTSTGDTLLTQSLLMELSALCRVEVEEGLALVALIGNDLSKACGVGKEVFGVLEPFNIRMICYGASSHNLCFLVPGEDAEQVVQKLHSNLFE”: the “total protein half-life in vivo” value reads like this: under setting [1], 4.06 ± 0.69 h; under setting [2], 2.98 ± 0.29 h; under setting [3], 2.67 ± 0.073 h; under setting [4], 3.15 ± 0.3 h; under setting [5], 2.54 ± 0.31 h; under setting [6], 3.142 ± 0.0098 h. Further, the “total protein half-life in vivo” value reads like this: under setting [7], 4.67 ± 0.34 h; under setting [8], 8.44 ± 2.4 h; under setting [9], 2.9 ± 0.23 h; under setting [10], 4.25 ± 0.55 h; under setting [11], 5.46 ± 0.4 h; under setting [12], 10.1 ± 1.1 h.

Regarding “MTQYWLGLDCGGSWLKAGLYDREGREAGVQRLPLCALSPQPGWAERDMAELWQCCMAVIRALLTHSGVSGEQIVGIGISAQGKGLFLLDKNDKPLGNAILSSDRRAMEIVRRWQEDGIPEKLYPLTRQTLWTGHPVSLLRWLKEHEPERYAQIGCVMMTHDYLRWCLTGVKGCEESNISESNLYNMSLGEYDPCLTDWLGIAEINHALPPVVGSAEICGEITAQTAALTGLKAGTPVVGGLFDVVSTALCAGIEDEFTLNAVMGTWAVTSGITRGLRDGEAHPYVYGRYVNDGEFIVHEASPTSSGNLEWFTAQWGEISFDEINQAVASLPKAGGDLFFLPFLYGSNAGLEMTSGFYGMQAIHTRAHLLQAIYEGVVFSHMTHLNRMRERFTDVHTLRVTGGPAHSDVWMQMLADVSGLRIELPQVEETGCFGAALAARVGTGVYHNFSEAQRDLRHPVRTLLPDMTAHQLYQKKYQRYQHLIAALQGFHARIKEHTL”, the “total protein half-life in vivo” value under setting [7] came to 4.05 ± 1.2 h and the “total protein half-life in vivo” value under setting [8] came out at 7.19 ± 1.2 h.

Consider “MSGFYHKHFLKLLDFTPAELNSLLQLAAKLKADKKSGKEEAKLTGKNIALIFEKDSTRTRCSFEVAAYDQGARVTYLGPSGSQIGHKESIKDTARVLGRMYDGIQYRGYGQEIVETLAEYASVPVWNGLTNEFHPTQLLADLLTMQEHLPGKAFNEMTLVYAGDARNNMGNSMLEAAALTGLDLRLVAPQACWPEAALVTECRALAQQNGGNITLTEDVAKGVEGADFIYTDVWVSMGEAKEKWAERIALLREYQVNSKMMQLTGNPEVKFLHCLPAFHDDQTTLGKKMAEEFGLHGGMEVTDEVFESAASIVFDQAENRMHTIKAVMVATLSK”, for which the “total protein half-life in vivo” value reads like this: under setting [1], 3.57 ± 0.61 h; under setting [2], 2.14 ± 0.064 h; under setting [3], 2.09 ± 0.27 h; under setting [4], 2.62 ± 0.044 h; under setting [5], 2.52 ± 0.042 h; under setting [6], 2.9 ± 0.032 h. Besides, the “total protein half-life in vivo” value runs as follows: under setting [7], 4.71 ± 0.28 h; under setting [8], 7.42 ± 1.9 h; under setting [9], 2.52 ± 0.23 h; under setting [10], 3.48 ± 0.63 h; under setting [11], 5.11 ± 0.34 h; under setting [12], 8.84 ± 0.35 h.

On to “MTITPQNLIALLPLLIVGLTVVVVMLSIAWRRNHFLNATLSVIGLNAALVSLWFVGQAGAMDVTPLMRVDGFAMLYTGLVLLASLATCTFAYPWLEGYNDNKDEFYLLVLIAALGGILLANANHLASLFLGIELISLPLFGLVGYAFRQKRSLEASIKYTILSAAASSFLLFGMALVYAQSGDLSFVALGKNLGDGMLNEPLLLAGFGLMIVGLGFKLSLVPFHLWTPDVYQGAPAPVSTFLATASKIAIFGVVMRLFLYAPVGDSEAIRVVLAIIAFASIIFGNLMALSQTNIKRLLGYSSISHLGYLLVALIALQTGEMSMEAVGVYLAGYLFSSLGAFGVVSLMSSPYRGPDADSLFSYRGLFWHRPILAAVMTVMMLSLAGIPMTLGFIGKFYVLAVGVQAHLWWLVGAVVVGSAIGLYYYLRVAVSLYLHAPEQPGRDAPSNWQYSAGGIVVLISALLVLVLGVWPQPLISIVRLAMPLM [P0AFF0]”, for which the “total protein half-life in vivo” value is, setting by setting: under setting [1], 7.16 h; under setting [2], 6.36 ± 0.41 h; under setting [3], 6.09 ± 1.6 h; under setting [5], 6.08 h; under setting [6], 3.46 h; under setting [9], 5.29 h. The “total protein half-life in vivo” value under setting [12] was determined as 11.8 ± 1.4 h.

“MRNHRISLQDIATLAGVTKMTVSRYIRSPKKVAKETGERIAKIMEEINYIPNRAPGMLLNAQSYTLGILIPSFQNQLFADILAGIESVTSEHNYQTLIANYNYDRDSEEESVINLLSYNIDGIILSEKYHTIRTVKFLRSATIPVVELMDVQGERLDMEVGFDNRQAAFDMVCTMLEKRVRHKILYLGSKDDTRDEQRYQGYCDAMMLHNLSPLRMNPRAISSIHLGMQLMRDALSANPDLDGVFCTNDDIAMGALLLCRERNLAVPEQISIAGFHGLEIGRQMIPSLASVITPRFDIGRMAAQMLLSKIKNNDHNHNTVDLGYQIYHGNTL”: the “total protein half-life in vivo” value worked out at 6.39 ± 1.7 h under setting [1], 0.548 h under setting [6] and 1.1 h under setting [8].

As for “MRKLWNALRRPSARWSVLALVAIGIVIGIALIVLPHVGIKVTSTTEFCVSCHSMQPVYEEYKQSVHFQNASGVRAECHDCHIPPDIPGMVKRKLEASNDIYQTFIAHSIDTPEKFEAKRAELAEREWARMKENNSATCRSCHNYDAMDHAKQHPEAARQMKVAAKDNQSCIDCHKGIAHQLPDMSSGFRKQFDELRASANDSGDTLYSIDIKPIYAAKGDKEASGSLLPASEVKVLKRDGDWLQIEITGWTESAGRQRVLTQFPGKRIFVASIRGDVQQQVKTLEKTTVADTNTEWSKLQATAWMKKGDMVNDIKPIWAYADSLYNGTCNQCHGAPEIAHFDANGWIGTLNGMIGFTSLDKREERTLLKYLQMNASDTAGKAHGDKKEEK”, the “total protein half-life in vivo” value reads like this: under setting [4], 5.27 h; under setting [10], 9.72 h; under setting [12], 10.5 h.

“MKYKLLPCLLAIFLTGCDRTEVTLSFTPEMASFSNEFDFDPLRGPVKDFTQTLMDEQGEVTKRVSGTLSEEGCFDSLELLDLENNTVVALVLDANYYRDAETLEKRVRLQGKCQLAELPSAGVSWETDDNGFVIKASSKQMQMEYRYDDQGYPLGKTTKSNDKTLSVSATPSTDPIKKLDYTAVTLLNNQRVGNVKQSCEYDSHANPVDCQLIIVDEGVKPAVERVYTIKNTIDYY”: the “total protein half-life in vivo” value by setting is: under setting [1], 2.15 ± 0.28 h; under setting [2], 2 ± 0.022 h; under setting [3], 2.16 ± 0.13 h; under setting [4], 1.87 h; under setting [5], 1.81 ± 0.19 h; under setting [6], 1.64 ± 0.1 h. The “total protein half-life in vivo” value turned out to be 2.38 ± 0.077 h under setting [7]; 2.85 ± 0.52 h under setting [8]; 2.24 ± 0.56 h under setting [9]; 2.51 ± 0.27 h under setting [10]; 2.13 ± 0.32 h under setting [11]; 3.98 ± 0.97 h under setting [12].

As to “MSPTIYDIARVAGVSKSTVSRVLNKQTNISPEAREKVLRAIEELQYQPNKLARALTSSGFDAIMVISTRSTKTTAGNPFFSEVLHAITAKAEEEGFDVILQTSHNPAEDLQKCESKIKQKMIKGIIMLSSPADESFFAQLDKYDIPVVVIGKVEGQYAHVYSVDTDNFGDSIALTDALIESGHQNIACLHAPLDVHVSVDRVNGYKQSLAAHNIAVRDEWIVDGGYTHETALKAARQLLSQSPLPEAVFATDSLKLMSIYRAAAEKNIAIPQQLAVVGYSNETLSFILTPAPGGIDVPTQELGQQSCELLFRLISGKPSPQNITVATHMTLK”, the “total protein half-life in vivo” value runs as follows: under setting [1], 5.84 ± 0.79 h; under setting [2], 4.18 ± 1.6 h; under setting [3], 5.76 ± 0.6 h; under setting [5], 4.86 ± 0.18 h; under setting [6], 2.48 ± 0.17 h; under setting [7], 5.41 ± 0.97 h. In addition, the “total protein half-life in vivo” value was 10.2 ± 2.9 h under setting [8]; 5.34 ± 0.57 h under setting [9]; 9.3 ± 0.42 h under setting [10]; 5.06 ± 0.33 h under setting [11]; 10.6 ± 2.2 h under setting [12].
